For test [1], the target named is T1, p19, C-terminal 19 kDa fragment of Merozoite Surface Protein 1 (MSP-1), Plasmodium falciparum 3D7 allele, … (Plasmodium falciparum 3D7).
T1 chain: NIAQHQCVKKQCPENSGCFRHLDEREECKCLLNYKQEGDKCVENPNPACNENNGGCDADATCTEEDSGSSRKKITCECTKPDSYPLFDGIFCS

Test [2] deals with T2, full-length Merozoite Surface Protein 1 (MSP-1), Plasmodium falciparum 3D7 allele, non-glycosylated, His6 (Plasmodium falciparum 3D7, UniProt Q8I0U8).
In test [3] the target is T2, full-length Merozoite Surface Protein 1 …. The experiment in a line: ELISA. The following applies: both partners purified.
For test [4], the target named is T3, biotinylated p19 (3D7 allele, non-glycosylated) with C-terminal Avi-tag and His6 tag (Plasmodium falciparum 3D7, enzymatically biotinylated on a C-terminal AviTag).
T3 chain: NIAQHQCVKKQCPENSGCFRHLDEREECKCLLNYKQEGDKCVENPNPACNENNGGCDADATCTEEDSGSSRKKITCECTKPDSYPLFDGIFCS
The experiment in a line: BLI. The conditions noted are these: both partners purified.

Read-outs that look alike come from different tables or passages of the source.

This note sets out measurements from paper PMC9537153 (Nature Communications, 2022).

What is called Kd is the free concentration of one partner at which half of the binding sites on the other are occupied at equilibrium, for simple one-to-one binding. For orientation: koff means a measure of how fast the partners let go of each other. As a reminder, the kon is the rate constant with which the complex forms.

T2 sequence (Q8I0U8 whole entry, looked up): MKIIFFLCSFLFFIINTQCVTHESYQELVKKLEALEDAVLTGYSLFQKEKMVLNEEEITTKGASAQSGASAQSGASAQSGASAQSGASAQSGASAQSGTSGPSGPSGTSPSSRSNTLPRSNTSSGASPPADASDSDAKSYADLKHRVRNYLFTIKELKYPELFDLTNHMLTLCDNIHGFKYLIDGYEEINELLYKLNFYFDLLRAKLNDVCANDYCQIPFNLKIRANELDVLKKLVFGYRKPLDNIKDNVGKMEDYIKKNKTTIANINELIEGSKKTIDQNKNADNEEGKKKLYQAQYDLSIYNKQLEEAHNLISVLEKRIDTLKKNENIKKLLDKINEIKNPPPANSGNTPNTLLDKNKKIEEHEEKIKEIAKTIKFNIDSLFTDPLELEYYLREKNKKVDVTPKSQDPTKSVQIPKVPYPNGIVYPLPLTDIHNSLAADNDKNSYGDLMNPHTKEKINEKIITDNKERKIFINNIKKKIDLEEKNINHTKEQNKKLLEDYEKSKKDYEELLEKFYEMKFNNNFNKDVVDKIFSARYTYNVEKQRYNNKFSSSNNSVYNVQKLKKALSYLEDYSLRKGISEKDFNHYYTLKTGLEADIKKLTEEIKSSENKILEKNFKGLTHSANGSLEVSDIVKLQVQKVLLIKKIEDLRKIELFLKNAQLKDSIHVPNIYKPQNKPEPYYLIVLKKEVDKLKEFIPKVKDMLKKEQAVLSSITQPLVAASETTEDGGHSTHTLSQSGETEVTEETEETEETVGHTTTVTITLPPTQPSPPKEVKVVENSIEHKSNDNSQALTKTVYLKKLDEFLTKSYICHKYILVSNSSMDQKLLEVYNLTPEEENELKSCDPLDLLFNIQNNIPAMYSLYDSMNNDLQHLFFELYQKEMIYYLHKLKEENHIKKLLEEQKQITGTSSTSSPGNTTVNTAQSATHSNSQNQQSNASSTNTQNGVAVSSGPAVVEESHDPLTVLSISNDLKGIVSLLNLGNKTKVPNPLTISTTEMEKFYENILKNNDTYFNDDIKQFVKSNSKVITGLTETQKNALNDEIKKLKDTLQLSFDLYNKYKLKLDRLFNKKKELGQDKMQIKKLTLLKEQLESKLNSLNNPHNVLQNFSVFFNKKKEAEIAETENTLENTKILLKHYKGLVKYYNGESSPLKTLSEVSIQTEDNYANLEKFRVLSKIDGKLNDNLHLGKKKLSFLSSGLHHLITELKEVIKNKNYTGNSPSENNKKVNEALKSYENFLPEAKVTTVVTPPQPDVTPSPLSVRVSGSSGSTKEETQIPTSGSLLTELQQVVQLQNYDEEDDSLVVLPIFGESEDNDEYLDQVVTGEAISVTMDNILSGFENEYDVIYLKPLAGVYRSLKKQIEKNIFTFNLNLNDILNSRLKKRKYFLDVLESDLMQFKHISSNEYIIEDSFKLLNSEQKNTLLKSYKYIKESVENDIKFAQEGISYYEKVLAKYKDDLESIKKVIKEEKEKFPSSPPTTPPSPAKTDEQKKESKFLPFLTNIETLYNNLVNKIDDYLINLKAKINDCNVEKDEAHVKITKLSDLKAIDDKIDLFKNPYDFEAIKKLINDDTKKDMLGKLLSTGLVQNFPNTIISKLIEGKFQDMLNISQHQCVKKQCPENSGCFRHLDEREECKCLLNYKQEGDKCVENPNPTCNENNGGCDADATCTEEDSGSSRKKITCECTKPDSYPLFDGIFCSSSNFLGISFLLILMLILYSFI

B1: 42C5 (antibody, V domains shown)
VH: EVQLVESGGGVVQPGGSLRLSCAASGFIFSSYSMHWVRQAPGKGLEWVAFIRYDGNRKYYGDSVKGRFTVSRDNSMDTLSLHMTNLRPEDTAIYYCARVGWTWVSEPVDVWGEGATVTVAS
VL: QSVLTQPPSASGTPGQGVSISCSGSRSNVGTNYVYWYQQVPGTAPKLLILRNTQRPSGVPDRFSGSKSGSSASLAISGLRSADEGDYYCAVWDSNLDHVVFGGGTKVTVL
Consider B1, for which, in test [1], binding was put at a Kd of 3.29 nM. In addition, the binding result in test [2] was “binds”.

B2: 42C11 recombinant human IgG1 (hmAb 42C11) (antibody, V domains shown)
VH: QVQLVESGGGVVQPGGSLRLSCAASGFIFSSYSMHWVRQAPGKGLEWVAFIRYDGRREYYADSVKGRFTVSRDNIMNTVFLQMNNLRPEDTATYYCAKVGWTWVSEPADVWGEGATVTVSS
VL: QSVLTQPPSTSGTPGQGVTISCSGSRSNVGTNYVYWYQQIPGRAPKLLINRNTQRPSGVPVRFSGSKSGTTAFLAITGLRSEDEADYFCAVWDGDLSGVIFGGGTKVTVL
notes: IgG1; source: Expi293F cells, heavy- and light-chain plasmids co-transfected 1:1, purified (Protein A agarose, SEC)
Turning to B2, the binding result in test [3] is on record as “binds”.

B3: 42C11 Fab (naturally acquired human monoclonal antibody to p19) (Fab, V domains shown)
VH: QVQLVESGGGVVQPGGSLRLSCAASGFIFSSYSMHWVRQAPGKGLEWVAFIRYDGRREYYADSVKGRFTVSRDNIMNTVFLQMNNLRPEDTATYYCAKVGWTWVSEPADVWGEGATVTVSS
VL: QSVLTQPPSTSGTPGQGVTISCSGSRSNVGTNYVYWYQQIPGRAPKLLINRNTQRPSGVPVRFSGSKSGTTAFLAITGLRSEDEADYFCAVWDGDLSGVIFGGGTKVTVL
notes: source: Expi293F cells, transfected, purified from supernatant (Ni Sepharose Excel, SEC)
In test [4], B3 had a dissociation constant (Kd) of 1.84 nM, a dissociation rate constant (koff) of 0.00047 s⁻¹ and a kon of 255000 M⁻¹ s⁻¹.

B4: 42D7 (antibody, V domains shown)
VH: EVQMVESGGGVVRPGGSLGLSCTASGFTFSNFGIYWVRQAPGKGLEWVAFTRYDGRNKYYGDSVKGRFTISRDNSKNTLYLQMNRLRHEDTGTYYCAKVGATWASEPMDVWGKGTTVMVSS
VL: QSVLTQPPSVSGTPGQRVTIYCSGSTSNVGTNFVYWYKQLPGAAPKLLISRNTQRPSGVPDRFSGSKSGTSAFLAISGLRSEDEASYHCSVWDGDLTGLVFGGGTKLTVL
B4 came in with a dissociation constant Kd in test [1] of 6.2 nM. The binding result in test [2] is “binds”.

B5: 42A9 (antibody, V domains shown)
VH: QVQVVESGGGVVQPGGSLTLSCRASGFIFSDYGLHWVRQPPGKGLEWVALINYDGRNKYYADSVRGRFTISRDNSKNTLSLQMSSLRSGDTAIYFCARVGAKWASEPMDVWGRGTTVTVSS
VL: QSVLTQPPSASGTPGQRVTISCSGSTSNVGTNFVYWYHQRPGTAPKLLIYRNDERPSGVPDRISGSKSGASASLAISGLRSEDEGDYHCSAWDGSLRRLVFGGGTKLTVL
For the molecule B5, the equilibrium dissociation constant (Kd) in test [1] worked out at 0.73 nM. In addition, the binding result in test [2] was “binds”.
